Assay results as given in patent US20180258172A1.

What was measured:
[1] = biological target: human zB7H6 (full-length, on cells) (human) (UniProt Q68D85); experiment: competition flow cytometry, zB7H6-transfected P815 cells, 100-fold mass excess of isotype control antibody (no competition)
[2] = biological target: human zB7H6 (full-length, on cells) (human) (UniProt Q68D85); experiment: competition flow cytometry, zB7H6-transfected P815 cells, 100-fold mass excess of isotype control antibody against NKp30/mFc2-biotin (no competition)

Chain of human zB7H6 (full-length, on cells) (human) (Q68D85 25-454): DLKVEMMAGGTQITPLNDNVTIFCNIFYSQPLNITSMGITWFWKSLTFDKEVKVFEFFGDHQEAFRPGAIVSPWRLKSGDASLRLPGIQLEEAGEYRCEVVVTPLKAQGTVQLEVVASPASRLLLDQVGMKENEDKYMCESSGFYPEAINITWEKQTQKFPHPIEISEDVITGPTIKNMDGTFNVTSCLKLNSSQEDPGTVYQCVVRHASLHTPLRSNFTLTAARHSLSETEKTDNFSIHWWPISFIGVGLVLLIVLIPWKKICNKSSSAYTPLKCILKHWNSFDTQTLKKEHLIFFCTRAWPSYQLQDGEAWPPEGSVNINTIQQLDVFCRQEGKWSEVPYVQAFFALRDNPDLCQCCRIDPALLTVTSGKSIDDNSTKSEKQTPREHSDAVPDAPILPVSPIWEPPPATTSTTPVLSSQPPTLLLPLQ

isotype control antibody was tested, and the MFI of anti-zB7H6-A647 in the presence of the competitor [1] was 500 and the MFI of NKp30/mFc2-biotin in the presence of the competitor [2] was 775.
